This is an account of results in patent US11260115B1, “Peptides and combination of peptides for use in immunotherapy against CLL and other cancers” (immatics biotechnologies GmbH, priority 2015, dated 2022).

This assay has as its target HLA-A*02:01 (Homo sapiens, UniProt P04439, D140Y/D185E/D98H/E176V/E277Q/G131W/G231S/I119V/I121R/I166T/I218V/L300P/L318F/N151K/N90K/P208A/P217A/Q86G/Q94H/R138H/R169H/T345S). The experiment in a line: MHC binding assay (UV-ligand exchange, β2m ELISA, peptide exchange yield). The note with it: binding to HLA-A*02:01. The text has this: Candidate peptides for T cell based therapies according to the present invention were further tested for their MHC binding capacity (affinity). The individual peptide-MHC complexes were produced by UV-ligand exchange, where a UV-sensitive peptide is cleaved upon UV-irradiation, and exchanged with the peptide of interest as analyzed. Only peptide candidates that can effectively bind and stabilize the peptide-receptive MHC molecules prevent dissociation of the MHC complexes. To determine the yield of the exchange reaction, an ELISA was performed based on the detection of the light chain (β2m) of stabilized MHC complexes. The assay was performed as generally described in Rodenko et al. (Rodenko et al., 2006).
96 well MAXISorp plates (NUNC) were coated over night with 2 ug/ml streptavidin in PBS at room temperature, washed 4× and blocked for 1 h at 37° C. in 2% BSA containing blocking buffer. Refolded HLA-A*02:01/MLA-001 monomers served as standards, covering the range of 15-500 ng/ml. Peptide-MHC monomers of the UV-exchange reaction were diluted 100 fold in blocking buffer. Samples were incubated for 1 h at 37° C., washed four times, incubated with 2 ug/ml HRP conjugated anti-β2m for 1 h at 37° C., washed again and detected with TMB solution that is stopped with […]. Absorption was measured at 450 nm. Candidate peptides that show a high exchange yield (preferably higher than 50%, most preferred higher than 75%) are generally preferred for a generation and production of antibodies or fragments thereof, and/or T cell receptors or fragments thereof, as they show sufficient avidity to the MHC molecules and prevent dissociation of the MHC complexes.
Table 11: MHC class I binding scores. Binding of HLA-class I restricted peptides to HLA-A*02:01 was ranged by peptide exchange yield: ≥10%=+; ≥20%=++; ≥50=+++; ≥75%=++++
Take “204 (GLLQINDKIAL; listed as Homo sapiens) [compound 204]”: the “Peptide Exchange (MHC class I binding score, peptide exchange yield)” value (from here on “Peptide Exchange”) is ““+++” (>50 = +++)”.
As for “8 (ALAASALPALV; listed as Homo sapiens) [compound 8]”, the “Peptide Exchange” value was ““+++” (>50 = +++)”.
On to “327 (VLIKWFPEV; listed as Homo sapiens) [compound 327]”, for which the “Peptide Exchange” value is ““++++” (>75% = ++++)”.
“31 (ELMHGVAGV; listed as Homo sapiens) [compound 31]”: the “Peptide Exchange” value was ““+++” (>50 = +++)”.
For the substance “184 (VLSHNLYTV; listed as Homo sapiens) [compound 184]”, the “Peptide Exchange” value is reported as ““+++” (>50 = +++)”.
Take “146 (SIIEGPIIKL; listed as Homo sapiens) [compound 146]”: the “Peptide Exchange” value was ““+++” (>50 = +++)”.
With “335 (YLYQEQYFI; listed as Homo sapiens) [compound 335]” the entry was ““+++” (>50 = +++)”; with “273 (VLGEYSYLL; listed as Homo sapiens) [compound 273]”, ““+++” (>50 = +++)”.
With “107 (ILYNLYDLL; listed as Homo sapiens) [compound 107]”, the “Peptide Exchange” value was ““+++” (>50 = +++)”.
As for “183 (VLMPTVYQQGV; listed as Homo sapiens) [compound 183]”, the “Peptide Exchange” value is ““+++” (>50 = +++)”.
Take “43 (FLLGPEALSFA; listed as Homo sapiens) [compound 43]”: the “Peptide Exchange” value is listed as ““++++” (>75% = ++++)”.
Regarding “314 (LMKDCEAEV; listed as Homo sapiens) [compound 314]”, the “Peptide Exchange” value is on record as ““+++” (>50 = +++)”.
The same measure for “299 (ILEENIPVL; listed as Homo sapiens) [compound 299]”: ““+++” (>50 = +++)”.
For the substance “302 (ILQDLTFVHL; listed as Homo sapiens) [compound 302]”, the “Peptide Exchange” value is ““+++” (>50 = +++)”.
In the case of “55 (FMEPTLLML; listed as Homo sapiens) [compound 55]”, the “Peptide Exchange” value is ““+++” (>50 = +++)”.
For the substance “251 (LLYDNVPGA; listed as Homo sapiens) [compound 251]”, the “Peptide Exchange” value is reported as ““+++” (>50 = +++)”.
The same measure for “319 (QVIPQLQTV; listed as Homo sapiens) [compound 319]”: ““+++” (>50 = +++)”; for “158 (SLPEAPLDV; listed as Homo sapiens) [compound 158]”: ““+++” (>50 = +++)”; for “3 (VIAELPPKV; listed as Homo sapiens) [compound 3]”: ““++” (>20% = ++)”.
With “25 (ATYSGLESQSV; listed as Homo sapiens) [compound 25]” the entry was ““++” (>20% = ++)”; with “65 (GLDDMKANL; listed as Homo sapiens) [compound 65]”, ““++” (>20% = ++)”.
For the substance “199 (YLVELSSLL; listed as Homo sapiens) [compound 199]”, the “Peptide Exchange” value is given as ““++++” (>75% = ++++)”.
The same measure for “229 (FLLNLQNCHL; listed as Homo sapiens) [compound 229]”: ““++++” (>75% = ++++)”.
For “182 (VLLSVPGPPV; listed as Homo sapiens) [compound 182]”, the “Peptide Exchange” value is given as ““+++” (>50 = +++)”.
As for “143 (QLLDTYFTL; listed as Homo sapiens) [compound 143]”, the “Peptide Exchange” value is ““+++” (>50 = +++)”.
Take “48 (FLSPQQPPLL; listed as Homo sapiens) [compound 48]”: the “Peptide Exchange” value is listed as ““+++” (>50 = +++)”.
The same measure for “150 (SLFDQPLSII; listed as Homo sapiens) [compound 150]”: ““+++” (>50 = +++)”; for “7 (ALLERTGYTL; listed as Homo sapiens) [compound 7]”: ““+++” (>50 = +++)”; for “294 (ALLDQLHTLL; listed as Homo sapiens) [compound 294]”: ““++++” (>75% = ++++)”.
With “22 (ALWDPVIEL; listed as Homo sapiens) [compound 22]” the entry was ““+++” (>50 = +++)”; with “195 (YLGGFALSV; listed as Homo sapiens) [compound 195]”, ““++++” (>75% = ++++)”.
The same measure for “214 (RLQELTEKL; listed as Homo sapiens) [compound 214]”: ““+++” (>50 = +++)”; for “276 (VLNDGAPNV; listed as Homo sapiens) [compound 276]”: ““+++” (>50 = +++)”.
Turning to “256 (QLLPVSNVVSV; listed as Homo sapiens) [compound 256]”, the “Peptide Exchange” value is ““+++” (>50 = +++)”.
Regarding “74 (GLLRASFLL; listed as Homo sapiens) [compound 74]”, the “Peptide Exchange” value was ““++” (>20% = ++)”.
On to “337 (YMYEKESEL; listed as Homo sapiens) [compound 337]”, for which the “Peptide Exchange” value was ““++” (>20% = ++)”.
With “369 (RLLDLENSLLGL; listed as Homo sapiens) [compound 369]” the entry was ““+++” (>50 = +++)”; with “239 (ILAGEMLSV; listed as Homo sapiens) [compound 239]”, ““+++” (>50 = +++)”.
Consider “224 (AMEALVVEV; listed as Homo sapiens) [compound 224]”, for which the “Peptide Exchange” value is recorded as ““+++” (>50 = +++)”.
The same measure for “93 (ILFNTQINI; listed as Homo sapiens) [compound 93]”: ““+++” (>50 = +++)”; for “61 (FVYFIVREV; listed as Homo sapiens) [compound 61]”: ““+++” (>50 = +++)”; for “216 (WLAGDVPAA; listed as Homo sapiens) [compound 216]”: ““+++” (>50 = +++)”.
For the substance “190 (VVMGTVPRL; listed as Homo sapiens) [compound 190]”, the “Peptide Exchange” value is given as ““+++” (>50 = +++)”.
On to “238 (GLVETELQL; listed as Homo sapiens) [compound 238]”, for which the “Peptide Exchange” value is ““+++” (>50 = +++)”.
On to “330 (VLMWEIYSL; listed as Homo sapiens) [compound 330]”, for which the “Peptide Exchange” value is given as ““+++” (>50 = +++)”.
Consider “105 (KLMNDIADI; listed as Homo sapiens) [compound 105]”, for which the “Peptide Exchange” value is ““++” (>20% = ++)”.
With “210 (KLLVQDFFL; listed as Homo sapiens) [compound 210]” the entry was ““+++” (>50 = +++)”; with “116 (LLIGATMQV; listed as Homo sapiens) [compound 116]”, ““+++” (>50 = +++)”; with “370 (SIFASPESV; listed as Homo sapiens) [compound 370]”, ““+++” (>50 = +++)”.
As for “382 (YLLPLLQRL; listed as Homo sapiens) [compound 382]”, the “Peptide Exchange” value is ““++++” (>75% = ++++)”.
For “19 (QVMEKLAAV; listed as Homo sapiens) [compound 19]”, the “Peptide Exchange” value was ““+++” (>50 = +++)”.
In the case of “160 (SLSFLVPSL; listed as Homo sapiens) [compound 160]”, the “Peptide Exchange” value is on record as ““+++” (>50 = +++)”.
The same measure for “295 (ALLQKLQQL; listed as Homo sapiens) [compound 295]”: ““+++” (>50 = +++)”.
Take “6 (ALDTLEDDMTI; listed as Homo sapiens) [compound 6]”: the “Peptide Exchange” value is ““+++” (>50 = +++)”.
Regarding “67 (GLDDVTVEV; listed as Homo sapiens) [compound 67]”, the “Peptide Exchange” value is listed as ““++” (>20% = ++)”.
